To fix the notation:
B1: Chromobox protein homolog 5 (Mus musculus), Q61686 (parent)
chain: MGKKTKRTADSSSSEDEEEYVVEKVLDRRMVKGQVEYLLKWKGFSEEHNTWEPEKNLDCPELISEFMKKYKKMKEGENNKPREKSEGNKRKSSFSNSADDIKSKKKREQSNDIARGFERGLEPEKIIGATDSCGDLMFLMKWKDTDEADLVLAKEANVKCPQIVIAFYEERLTWHAYPEDAENKEKESAKS
partner: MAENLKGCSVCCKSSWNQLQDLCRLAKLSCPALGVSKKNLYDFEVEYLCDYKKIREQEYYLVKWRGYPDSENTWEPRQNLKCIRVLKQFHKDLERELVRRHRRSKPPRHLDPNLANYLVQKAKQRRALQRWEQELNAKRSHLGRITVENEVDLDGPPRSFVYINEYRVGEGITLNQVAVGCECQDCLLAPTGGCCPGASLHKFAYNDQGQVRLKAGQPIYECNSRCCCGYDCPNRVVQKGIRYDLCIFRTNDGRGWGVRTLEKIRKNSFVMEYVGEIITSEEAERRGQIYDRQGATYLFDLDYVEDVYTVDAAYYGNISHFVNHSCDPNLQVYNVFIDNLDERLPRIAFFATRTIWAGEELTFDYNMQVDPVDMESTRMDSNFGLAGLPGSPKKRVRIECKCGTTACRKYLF

The variants in the test derive from B1. The note with it: with suv91_mouse Suv39h1, O54864.
With I165E;Y168E, the “effect of a mutation on the interaction” value is given as “disrupting interaction”.
